The results in this text go back to paper PMC6956826.

The target of this assay is SNID2 peptide of the CD3 zeta chain. As to the kind of experiment: ITC. In general terms: In ITC the heat of successive injections is recorded.

As usually defined, the Kd is the concentration at which binding is half-saturated. A higher Kd goes with weaker binding. As a reminder, the stoichiometry N is a count of units in the complex or per binding partner.

The substance HIV-2 consensus Nef registered a Kd of 12 µM, a dH of -12.3 kcal/mol and a stoichiometry N of 1.08.

In turn, “SIVmac239 Nef core domain harboring the C-terminal region (domain or fragment)” registered a dH of -14.2 kcal/mol and a stoichiometry N of 1.05.
